{
  "source": "paper PMC5613346",
  "about": "(Biochemistry and Biophysics Reports, 2016)",
  "binders": {"B1": {"name": "mouse wtTNF (ligand)", "chain": "LRSSSQNSSDKPVAHVVANHQVEEQLEWLSQRANALLANGMDLKDNQLVVPADGLYLVYSQVLFKGQGCPDYVLLTHTVSRFAISYQEKVNLLSAVKSPCPKDTPEGAELKPWYEPIYLGGVFQLEKGDQLSAEVNLPKYLDFAESGQVYFGVIAL"}},
  "key": {"[1]": {"target": "T1, mouse wtTNF (mouse), P06804", "T1 chain": "B1 chain", "experiment": "SEC", "details": "remark: other sources report otherwise"}, "mTNFR2 Fc chimera": {"target": "T2, mTNFR2 Fc chimera (mouse, UniProt P25119)", "T2 sequence": "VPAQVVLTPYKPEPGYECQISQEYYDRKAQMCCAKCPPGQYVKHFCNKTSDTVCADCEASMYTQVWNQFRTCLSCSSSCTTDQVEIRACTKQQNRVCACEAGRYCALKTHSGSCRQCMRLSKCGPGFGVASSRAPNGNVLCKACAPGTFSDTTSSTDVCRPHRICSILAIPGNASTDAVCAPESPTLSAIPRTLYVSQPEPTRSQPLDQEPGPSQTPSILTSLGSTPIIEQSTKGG", "experiment": "SPR"}, "mTNFR1 Fc chimera": {"target": "T3, mTNFR1 Fc chimera (mouse, UniProt P25118)", "T3 sequence": "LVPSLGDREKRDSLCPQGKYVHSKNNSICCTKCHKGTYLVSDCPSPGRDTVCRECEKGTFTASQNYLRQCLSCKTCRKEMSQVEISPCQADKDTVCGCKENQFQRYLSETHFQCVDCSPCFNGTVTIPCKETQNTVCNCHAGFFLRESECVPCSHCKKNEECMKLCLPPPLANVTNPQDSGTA", "experiment": "SPR"}},
  "data": [
    {"binder": "B1", "values": [
      {"measurement": "stoichiometry N", "setting": "[1]", "result": 3},
      {"measurement": "Kd", "setting": "mTNFR2 Fc chimera", "result": 10.4, "unit": "nM"},
      {"measurement": "koff", "setting": "mTNFR2 Fc chimera", "result": 0.0056, "unit": "s⁻¹"},
      {"measurement": "kon", "setting": "mTNFR2 Fc chimera", "result": 537000, "unit": "M⁻¹ s⁻¹"},
      {"measurement": "Kd", "setting": "mTNFR1 Fc chimera", "result": 5.84, "unit": "nM"},
      {"measurement": "koff", "setting": "mTNFR1 Fc chimera", "result": 0.000969, "unit": "s⁻¹"},
      {"measurement": "kon", "setting": "mTNFR1 Fc chimera", "result": 166000, "unit": "M⁻¹ s⁻¹"}
    ]}
  ]
}
